# According to publication PMC5748837, “Biochemical characterization of INTS3 and C9ORF80, two subunits of hNABP1/2 heterotrimeric complex in nucleic acid binding”:
# T1: C9ORF80 (human, UniProt Q9NRY2 1-104)
# T1 sequence: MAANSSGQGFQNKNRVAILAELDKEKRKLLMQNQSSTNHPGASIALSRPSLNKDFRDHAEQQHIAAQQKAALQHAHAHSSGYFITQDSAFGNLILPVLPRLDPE
# B1: DNA 60-mer (random) (ssDNA)
# DNA: ACGCAGTTGAGTATTCTACAGAGTTGGCGTGAGCTACCAGCTACCCCGTATGTCAGAGAG
# B2: dT60 (ssDNA)
# DNA: TTTTTTTTTTTTTTTTTTTTTTTTTTTTTTTTTTTTTTTTTTTTTTTTTTTTTTTTTTTT
# B3: dT90 (ssDNA)
# DNA: TTTTTTTTTTTTTTTTTTTTTTTTTTTTTTTTTTTTTTTTTTTTTTTTTTTTTTTTTTTTTTTTTTTTTTTTTTTTTTTTTTTTTTTTTT
# B4: dsRNA 30-mer (dsRNA)
# RNA 1: GAGCUACCAGCUACCCCGUAUGUCAGAGAG
# RNA 2: CUCUCUGACAUACGGGGUAGCUGGUAGCUC
# B5: DNA:RNA hybrid 30-mer (DNA:RNA)
# DNA: GAGCTACCAGCTACCCCGTATGTCAGAGAG
# RNA: CUCUCUGACAUACGGGGUAGCUGGUAGCUC
# Assays:
# Experiment in all cases: EMSA; EMSA: 20 mM HEPES pH 7.3, 100 mM KCl, 1 mM MgCl2, 1 mg/ml BSA, 1 mM DTT, 6% glycerol, 0.5 nM 32P substrate, 30 min on ice; 5% native PAGE, 1x TBE, 4°C
# INTS3FL = INTS3FL (human, UniProt Q68E01-2 1-1042); conditions: protein: recombinant, tags: GST cleaved (PreScission)
# INTS3FL, sequence (Q68E01 other isoform, or with tags, fused parts or gaps): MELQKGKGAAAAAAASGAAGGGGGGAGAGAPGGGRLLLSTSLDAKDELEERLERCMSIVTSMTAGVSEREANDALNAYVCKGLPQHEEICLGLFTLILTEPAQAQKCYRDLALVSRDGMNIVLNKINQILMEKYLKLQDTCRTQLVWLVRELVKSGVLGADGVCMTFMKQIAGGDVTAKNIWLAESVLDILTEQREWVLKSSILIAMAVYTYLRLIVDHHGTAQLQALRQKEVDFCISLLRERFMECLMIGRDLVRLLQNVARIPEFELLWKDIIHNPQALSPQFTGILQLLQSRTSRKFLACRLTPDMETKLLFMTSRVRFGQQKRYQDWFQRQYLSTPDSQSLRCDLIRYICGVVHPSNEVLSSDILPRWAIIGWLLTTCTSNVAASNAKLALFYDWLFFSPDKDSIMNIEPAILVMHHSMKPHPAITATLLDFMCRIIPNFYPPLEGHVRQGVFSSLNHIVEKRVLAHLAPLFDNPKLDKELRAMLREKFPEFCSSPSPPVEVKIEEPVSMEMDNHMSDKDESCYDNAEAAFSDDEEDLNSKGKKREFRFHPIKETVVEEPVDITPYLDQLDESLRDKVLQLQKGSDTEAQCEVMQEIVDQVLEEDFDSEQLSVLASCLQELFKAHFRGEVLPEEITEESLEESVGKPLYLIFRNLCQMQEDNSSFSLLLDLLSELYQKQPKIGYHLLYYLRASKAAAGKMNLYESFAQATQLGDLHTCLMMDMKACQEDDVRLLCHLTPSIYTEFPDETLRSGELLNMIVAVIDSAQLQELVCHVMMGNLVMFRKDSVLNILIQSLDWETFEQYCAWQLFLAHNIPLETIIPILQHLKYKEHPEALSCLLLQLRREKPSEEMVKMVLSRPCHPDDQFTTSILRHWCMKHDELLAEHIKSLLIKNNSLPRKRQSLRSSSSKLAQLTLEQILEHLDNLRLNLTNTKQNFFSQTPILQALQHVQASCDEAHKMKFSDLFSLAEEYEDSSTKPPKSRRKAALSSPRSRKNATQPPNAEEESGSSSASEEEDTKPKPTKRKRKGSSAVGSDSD
# [1] = target: INTS3FL in co-expressed complex;hNABP2 (hSSB1);C9ORF80 (human;human;human, UniProt Q68E01-2;Q9BQ15;Q9NRY2 1-1042;1-211;1-104, ||); conditions: protein: recombinant;recombinant;recombinant; tags: GST (pGEX-6P-1); copies: 1;1;1; label: 5'-32P
# INTS3FL in co-expressed complex;hNABP2 (hSSB1);C9ORF80, sequence (Q68E01 other isoform, or with tags, fused parts or gaps ||, chain 1 of 2): as the sequence (Q68E01 other isoform, or with tags, fused parts or gaps) above
# INTS3FL in co-expressed complex;hNABP2 (hSSB1);C9ORF80, sequence (Q9BQ15 whole entry, chain 2 of 2): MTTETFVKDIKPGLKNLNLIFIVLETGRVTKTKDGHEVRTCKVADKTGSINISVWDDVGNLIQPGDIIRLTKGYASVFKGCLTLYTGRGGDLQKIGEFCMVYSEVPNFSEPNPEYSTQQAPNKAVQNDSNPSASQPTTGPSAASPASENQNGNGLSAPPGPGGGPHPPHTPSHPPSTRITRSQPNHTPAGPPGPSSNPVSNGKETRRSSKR
# INTS3C = INTS3C (human, UniProt Q68E01-2 514-1042); conditions: protein: recombinant, tags: His (pET28a), label: 5'-32P
# INTS3C, sequence (Q68E01 515-1043): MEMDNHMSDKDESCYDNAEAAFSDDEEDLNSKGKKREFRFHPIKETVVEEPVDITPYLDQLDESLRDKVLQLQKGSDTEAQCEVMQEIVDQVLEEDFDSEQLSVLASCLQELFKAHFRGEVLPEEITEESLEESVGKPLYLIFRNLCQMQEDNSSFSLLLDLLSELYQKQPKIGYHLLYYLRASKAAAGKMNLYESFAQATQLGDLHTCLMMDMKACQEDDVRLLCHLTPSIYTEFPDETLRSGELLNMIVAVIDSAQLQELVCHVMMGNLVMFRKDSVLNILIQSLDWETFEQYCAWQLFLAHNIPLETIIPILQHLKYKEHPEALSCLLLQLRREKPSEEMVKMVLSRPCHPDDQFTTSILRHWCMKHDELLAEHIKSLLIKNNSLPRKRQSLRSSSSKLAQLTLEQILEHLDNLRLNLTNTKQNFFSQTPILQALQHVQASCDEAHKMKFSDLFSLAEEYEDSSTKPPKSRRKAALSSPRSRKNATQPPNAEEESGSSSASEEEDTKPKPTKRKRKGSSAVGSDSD
# hNABP2 (hSSB1) = hNABP2 (hSSB1) (human, UniProt Q9BQ15 1-211); conditions: protein: recombinant; tags: His; label: 5'-32P
# hNABP2 (hSSB1), sequence (Q9BQ15 whole entry): as the sequence (Q9BQ15 whole entry, chain 2 of 2) above
# C9ORF80 = target: T1, C9ORF80; conditions: protein: recombinant, tags: His (pET28a)
# hNABP1 (hSSB2) = hNABP1 (hSSB2) (human, UniProt Q96AH0 1-204); conditions: protein: recombinant; tags: His; label: 5'-32P
# hNABP1 (hSSB2), sequence (Q96AH0 whole entry): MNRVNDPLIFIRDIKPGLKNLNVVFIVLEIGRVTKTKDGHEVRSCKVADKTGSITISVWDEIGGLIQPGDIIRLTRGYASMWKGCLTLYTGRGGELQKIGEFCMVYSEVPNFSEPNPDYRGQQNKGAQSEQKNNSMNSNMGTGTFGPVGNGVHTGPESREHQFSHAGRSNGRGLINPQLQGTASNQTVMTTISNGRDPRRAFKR
# [2] = target: INTS3FL in co-expressed complex;hNABP1 (hSSB2);C9ORF80 (human;human;human, UniProt Q68E01-2;Q96AH0;Q9NRY2 1-1042;1-204;1-104, ||); conditions: protein: recombinant;recombinant;recombinant; tags: GST (pGEX-6P-1); copies: 1;1;1; label: 5'-32P
# INTS3FL in co-expressed complex;hNABP1 (hSSB2);C9ORF80, sequence (Q68E01 other isoform, or with tags, fused parts or gaps ||, chain 1 of 2): as the sequence (Q68E01 other isoform, or with tags, fused parts or gaps) above
# INTS3FL in co-expressed complex;hNABP1 (hSSB2);C9ORF80, sequence (Q96AH0 whole entry, chain 2 of 2): as the sequence (Q96AH0 whole entry) above
# [3] = label: 5'-32P on one strand, blunt
binder,measurement,setting,value
UUUUUUUUUUUUUUUUUUUUUUUUUUUUUU (ssRNA) [rU30],Kd,INTS3FL; label: 5'-32P,5.6 ± 1.2 µM
same,Kd,[1],0.5 ± 0.07 µM
same,Kd,INTS3C; chain copies: 2,1.2 ± 0.8 µM
same,Kd,hNABP2 (hSSB1),0.06 ± 0.02 µM
GAGCTACCAGCTACCCCGTATGTCAGAGAG (ssDNA) [DNA 30-mer (random)],Kd,INTS3FL; label: 5'-32P,13 ± 0.8 µM
B1,Kd,INTS3FL; label: 5'-32P,6.4 ± 0.9 µM
B2,binding result,INTS3FL; label: 5'-32P,binds
B3,binding result,INTS3FL; label: 5'-32P,binds
same,binding result,C9ORF80; label: 5'-32P,binds
B4,binding result,INTS3FL; [3],no binding
same,binding result,C9ORF80; [3],no binding
B5,binding result,INTS3FL; [3],no binding
same,binding result,C9ORF80; [3],no binding
TTTTTTTTTTTTTTTTTTTTTTTTTTTTTT (ssDNA) [dT30],Kd,hNABP1 (hSSB2),0.15 ± 0.04 µM
same,Kd,C9ORF80; label: 5'-32P,13.2 ± 1.2 µM
same,Kd,[2],0.6 ± 0.09 µM
same,Kd,INTS3C,7.2 ± 1.2 µM
